Test results from publication PMC12403835.
pKd: −log10 of the molar value.

Legend:
C1q complement component = C1q complement component (UniProt P02745); test: BLI
FcgR3b Biotinylated = FcgR3b Biotinylated (UniProt O75015); test: SPR
FcgR3a(F), biotinylated = FcgR3a(F), biotinylated (UniProt P08637); test: SPR
FcgR3a(V), biotinylated = FcgR3a(V), biotinylated (UniProt P08637); test: SPR

Chain of UniProt O75015 (O75015 17-200): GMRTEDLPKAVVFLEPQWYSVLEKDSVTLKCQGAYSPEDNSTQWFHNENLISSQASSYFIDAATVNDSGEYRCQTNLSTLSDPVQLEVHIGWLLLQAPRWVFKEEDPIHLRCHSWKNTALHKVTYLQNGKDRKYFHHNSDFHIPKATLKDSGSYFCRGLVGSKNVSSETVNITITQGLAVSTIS
Chain of UniProt P02745 (P02745 23-245, chain 1 of 3): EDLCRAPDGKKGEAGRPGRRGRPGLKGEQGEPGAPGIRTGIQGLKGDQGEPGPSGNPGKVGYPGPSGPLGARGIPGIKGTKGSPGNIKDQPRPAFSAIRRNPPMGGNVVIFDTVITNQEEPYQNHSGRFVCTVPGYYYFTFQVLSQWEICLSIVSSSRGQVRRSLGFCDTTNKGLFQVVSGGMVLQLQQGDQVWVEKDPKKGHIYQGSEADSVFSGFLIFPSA
Chain of UniProt P02745 (P02746 28-253, chain 2 of 3, further chain): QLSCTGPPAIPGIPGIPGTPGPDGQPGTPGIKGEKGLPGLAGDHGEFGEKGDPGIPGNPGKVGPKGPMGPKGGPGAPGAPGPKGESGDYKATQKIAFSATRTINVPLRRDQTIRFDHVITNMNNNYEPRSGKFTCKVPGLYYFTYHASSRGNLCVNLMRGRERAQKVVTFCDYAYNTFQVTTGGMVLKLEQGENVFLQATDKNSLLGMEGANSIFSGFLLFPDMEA
Chain of UniProt P02745 (P02747 29-245, chain 3 of 3, further chain): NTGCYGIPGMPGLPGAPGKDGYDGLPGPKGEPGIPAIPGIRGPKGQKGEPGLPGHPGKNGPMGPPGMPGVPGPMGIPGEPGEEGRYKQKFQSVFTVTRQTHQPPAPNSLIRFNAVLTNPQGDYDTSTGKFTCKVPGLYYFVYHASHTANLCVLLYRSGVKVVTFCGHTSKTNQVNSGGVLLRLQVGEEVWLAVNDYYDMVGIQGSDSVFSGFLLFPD

Substance	pKd (C1q complement component)	pKd (FcgR3b Biotinylated)	pKd (FcgR3a(F), biotinylated)	pKd (FcgR3a(V), biotinylated)
CIS43 wild-type mAb (IgG1m3)	8.74	5.28	5.60	6.23
CIS43-LS-G236A (IgG1m3-LS-GA)	–	4.76	5.34	5.90

Now those with a higher pKd (FcgR3b Biotinylated), led by results:

pKd (C1q complement component)	pKd (FcgR3b Biotinylated)	pKd (FcgR3a(F), biotinylated)	pKd (FcgR3a(V), biotinylated)	Substance
8.82	5.30	5.56	6.23	CIS43-LS (IgG1m3-LS)
8.77	6.48	6.80	–	CIS43-LS-AFUC (afucosylated CIS43-LS)
–	5.99	–	–	CIS43-LS-GAALIE (IgG1m3-LS-GAALIE)
